From paper PMC10872772

Tests used:
Assay in all cases: FRET or BRET
Design in all cases: unit not given beside the values
[1] = biological target: T1, GST-PXR LBD protein (human)
T1 sequence (O75469 whole entry, species assumed, looked up): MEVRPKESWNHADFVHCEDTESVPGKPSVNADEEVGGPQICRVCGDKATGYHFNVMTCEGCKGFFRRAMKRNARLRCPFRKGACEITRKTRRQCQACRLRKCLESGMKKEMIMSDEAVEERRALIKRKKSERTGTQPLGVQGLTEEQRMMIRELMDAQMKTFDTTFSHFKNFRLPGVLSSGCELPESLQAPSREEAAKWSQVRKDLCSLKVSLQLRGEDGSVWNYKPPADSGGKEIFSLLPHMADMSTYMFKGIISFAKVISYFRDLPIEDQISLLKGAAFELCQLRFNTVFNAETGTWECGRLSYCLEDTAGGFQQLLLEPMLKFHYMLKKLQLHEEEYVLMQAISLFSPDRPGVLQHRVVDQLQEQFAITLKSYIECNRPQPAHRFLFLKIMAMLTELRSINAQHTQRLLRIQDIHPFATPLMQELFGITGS

[2] = biological target: T2, GST-LXRβ LBD (human)
T2 sequence (P55055 whole entry, looked up): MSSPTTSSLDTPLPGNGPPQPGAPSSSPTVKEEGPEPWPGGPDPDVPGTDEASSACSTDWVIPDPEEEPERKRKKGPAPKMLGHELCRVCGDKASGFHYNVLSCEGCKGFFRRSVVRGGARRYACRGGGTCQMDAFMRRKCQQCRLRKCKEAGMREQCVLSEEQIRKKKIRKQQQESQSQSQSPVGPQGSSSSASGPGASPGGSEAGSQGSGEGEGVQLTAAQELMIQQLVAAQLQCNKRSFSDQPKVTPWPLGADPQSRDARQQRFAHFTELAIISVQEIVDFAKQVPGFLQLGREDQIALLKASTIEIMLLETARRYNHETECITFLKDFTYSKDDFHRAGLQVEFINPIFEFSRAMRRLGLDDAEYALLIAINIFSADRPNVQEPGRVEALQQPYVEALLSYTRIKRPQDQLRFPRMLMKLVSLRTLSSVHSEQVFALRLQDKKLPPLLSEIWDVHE

[3] = biological target: T3, GST-LXRα LBD (human)
T3 sequence (Q13133 whole entry, looked up): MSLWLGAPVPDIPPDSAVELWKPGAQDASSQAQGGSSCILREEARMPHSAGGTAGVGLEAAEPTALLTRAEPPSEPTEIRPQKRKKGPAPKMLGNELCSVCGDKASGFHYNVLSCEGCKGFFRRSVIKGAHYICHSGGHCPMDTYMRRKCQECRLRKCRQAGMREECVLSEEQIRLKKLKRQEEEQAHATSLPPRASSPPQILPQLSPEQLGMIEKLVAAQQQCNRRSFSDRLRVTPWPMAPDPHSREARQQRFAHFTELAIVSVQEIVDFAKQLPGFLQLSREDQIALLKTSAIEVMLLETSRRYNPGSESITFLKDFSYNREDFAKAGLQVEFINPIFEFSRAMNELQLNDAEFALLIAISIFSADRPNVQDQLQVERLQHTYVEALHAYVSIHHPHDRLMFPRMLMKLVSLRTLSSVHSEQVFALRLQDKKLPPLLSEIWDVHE

- AUC of SRC-1 recruitment (TR-FRET) with SJPYT-299 [1]: 102
- AUC of SRC-1 recruitment (TR-FRET) with SJPYT-300 [1]: 102
- AUC of SRC-1 recruitment (TR-FRET) with SJPYT-301 [1]: 129
- AUC of SRC-1 recruitment (TR-FRET) with SJPYT-302 [1]: 102
- AUC of SRC-1 recruitment (TR-FRET) with SJPYT-303 [1]: 134
- AUC of SRC-1 recruitment (TR-FRET) with SJPYT-304 [1]: 113
- AUC of SRC-1 recruitment (TR-FRET) with SJPYT-305 [1]: 161
- AUC of SRC-1 recruitment (TR-FRET) with SJPYT-315 [1]: 57.4
- AUC of SRC-1 recruitment (TR-FRET) with SJPYT-316 [1]: 38.7
- AUC of SRC-1 recruitment (TR-FRET) with SJPYT-317 [1]: 39.5
- AUC of SRC-1 recruitment (TR-FRET) with SJPYT-318 [1]: 47.1
- AUC of SRC-1 recruitment (TR-FRET) with SJPYT-319 [1]: 23.6
- AUC of SRC-1 recruitment (TR-FRET) with T0901317 [1]: 124
- AUC of SRC-1 recruitment (TR-FRET) with SJPYT-299 [2]: 133
- AUC of SRC-1 recruitment (TR-FRET) with SJPYT-300 [2]: 136
- AUC of SRC-1 recruitment (TR-FRET) with SJPYT-301 [2]: 154
- AUC of SRC-1 recruitment (TR-FRET) with SJPYT-302 [2]: 149
- AUC of SRC-1 recruitment (TR-FRET) with SJPYT-303 [2]: 120
- AUC of SRC-1 recruitment (TR-FRET) with SJPYT-304 [2]: 125
- AUC of SRC-1 recruitment (TR-FRET) with SJPYT-305 [2]: 76.1
- AUC of SRC-1 recruitment (TR-FRET) with SJPYT-315 [2]: 117
- AUC of SRC-1 recruitment (TR-FRET) with SJPYT-316 [2]: 144
- AUC of SRC-1 recruitment (TR-FRET) with SJPYT-317 [2]: 71.3
- AUC of SRC-1 recruitment (TR-FRET) with SJPYT-318 [2]: 21.8
- AUC of SRC-1 recruitment (TR-FRET) with SJPYT-319 [2]: 21.5
- AUC of SRC-1 recruitment (TR-FRET) with T0901317 [2]: 202
- AUC of SRC-1 recruitment (TR-FRET) with SJPYT-299 [3]: 67.1
- AUC of SRC-1 recruitment (TR-FRET) with SJPYT-300 [3]: 80.2
- AUC of SRC-1 recruitment (TR-FRET) with SJPYT-301 [3]: 95.1
- AUC of SRC-1 recruitment (TR-FRET) with SJPYT-302 [3]: 108
- AUC of SRC-1 recruitment (TR-FRET) with SJPYT-303 [3]: 63.6
- AUC of SRC-1 recruitment (TR-FRET) with SJPYT-304 [3]: 59.5
- AUC of SRC-1 recruitment (TR-FRET) with SJPYT-305 [3]: 33.4
- AUC of SRC-1 recruitment (TR-FRET) with SJPYT-315 [3]: 62.3
- AUC of SRC-1 recruitment (TR-FRET) with SJPYT-316 [3]: 60.8
- AUC of SRC-1 recruitment (TR-FRET) with SJPYT-317 [3]: 27.2
- AUC of SRC-1 recruitment (TR-FRET) with T0901317 [3]: 122
Binder: {FAM-(PEG)5}-CPSSHSSLTERHKILHRLLQEGSPS-NH2 [FAM-SRC1-B peptide]
